Results: US8367390B2, “Galactanase variants” (Novozymes A/S, priority 2002, dated 2013)
Where two headings read alike, the source gives them in different places.

Columns and labels:
[1] = Degradation of MeGal3, products by HPAE-PAD; assay type: biochemical; settings: for Gal2 in reaction products / Gal3 in reaction products / Gal in reaction products / MeGal2 in reaction products / MeGal3 in reaction products / MeGal in reaction products: MeGal3 0.25 mg/ml, pH 6.5, 37° C.
Method: (§1) The activity on the galacto-oligosaccharide substrates prepared as described above and on the commercially available galactobiose (Gal2, Megazyme) was studied for the four purified galactanases HIGAL, MTGAL, AAGAL and BLGAL. The buffers and temperatures used were: 25 mM sodium acetate, 0.5 mM CaCl2, 0.005% Triton X-100, pH 6.5 at 37° C. for HIGAL and MTGAL, 50 mM sodium acetate, 1 mM CaCl2, pH 4 at 30° C. for AAGAL and 50 mM Mes, 1 mM CaCl2, pH 6.5 at 30° C. for BLGAL. Enzyme concentrations used were 0.8 μg/ml for HIGAL, 0.2 microgram/ml for MTGAL, and 10 micrograms/ml for AAGAL and BLGAL. With HIGAL and MTGAL substrate concentrations were all 0.25 mg/ml, whereas 0.34 mg/ml Gal2, 0.050 mg/ml Gal3 and 0.067 mg/ml Gal4 were used for AAGAL and BLGAL. Enzyme activity in samples withdrawn after various incubation times was inactivated by heating to 95° C. for 10 min. Compositions of reaction products were analysed using HPAE-PAD (Dionex) applying a PA-100 column and a linear gradient of sodium acetate (0-0.18 M) in 0.15 M NaOH. Response factors of the individual carbohydrates were estimated from reference runs with MeGal3, MeGal4, Gal, Gal2, Gal3 and Gal4. Selected results are shown in Tables 2-8 below (the figures indicating weight percentage of glactooligosaccharides).

[2] = assay type: biochemical; settings: for Gal2 in reaction products / Gal3 in reaction products / Gal4 in reaction products / Gal in reaction products: Gal4 0.25 mg/ml, pH 6.5, 37° C.
Method: as §1

[3] = Degradation of MeGal4, products by HPAE-PAD; assay type: biochemical; settings: for Gal2 in reaction products / Gal3 in reaction products / Gal4 in reaction products / Gal in reaction products / MeGal2 in reaction products / MeGal3 in reaction products / MeGal4 in reaction products / MeGal in reaction products: MeGal4 0.25 mg/ml, pH 6.5, 37° C.
Method: as §1

[4] = Activity on galactobiose (Gal2); assay type: biochemical; settings: in 24 hours; buffer, pH and temperature per enzyme
Method: as §1

[5] = Activity on galactotriose (Gal3); assay type: biochemical; settings: up to 24 hours; buffer, pH and temperature per enzyme
Method: as §1

[6] = HPAE-PAD check of transglycosylation products from ONPG; assay type: biochemical; settings: HIGAL 110 μg/ml; ONPG 5 mg/ml with and without Gal2 or Gal3 0.05 mg/ml; room temperature, pH 6.5
Method: Using HPAE-PAD chromatography (Dionex LC-500 System, PA-100 column, linear gradient of 0-0.6 M sodium acetate in 100 mM NaOH), the production of larger oligosaccharides from transglycosylation upon incubation of HIGAL (110 μg/ml) at room temperature (0.5 to 14 min followed by heat inactivation for 10 min at 95° C. resulting in A405: 0.15-0.67) in 50 mM sodium acetate, 1 mM CaCl2, 0.01% Triton X-100, pH 6.5 with ONPG (5 mg/ml) with and without Gal2 (0.05 mg/ml) or Gal3 (0.05 mg/ml) as acceptor was verified.

B1: HIGAL: GH Family 53 galactanase from Humicola insolens, SEQ ID NO: 2 (wild type parent) (protein, listed as Humicola insolens)
chain: ALQYKGVDWSSVMVEERAGVRYKNVNGQEKPLEYILAENGVNMVRQRVWVNPWDGNYNLDYNIQLARRAKAAGLGLYINFHYSDTWADPAHQTTPAGWPSDINNLAWKLYNYTLDSMNRFADAGIQVDIVSIGNEITQGLLWPLGKTNNWYNIARLLHSAAWGVKDSRLNPKPKIMVHLDNGWNWDTQNWWYTNVLSQGPFEMSDFDMMGVSFYPFYSASATLDSLRRSLNNMVSRWGKEVAVVETNWPTSCPYPRYQFPADVRNVPFSAAGQTQYIQSVANVVSSVSKGVGLFYWEPAWIHNANLGSSCADNTMFTPSGQALSSLSVFHRI
modifications: mat_peptide (1)..()
- Gal2 in reaction products ([1]; incubation time 0.0 hours): 0.0 weight percentage
- Gal3 in reaction products ([1]; incubation time 0.0 hours): 0.0 weight percentage
- Gal in reaction products ([1]; incubation time 0.0 hours): 0.0 weight percentage
- MeGal2 in reaction products ([1]; incubation time 0.0 hours): 0.0 weight percentage
- MeGal3 in reaction products ([1]; incubation time 0.0 hours): 100.0 weight percentage
- MeGal in reaction products ([1]; incubation time 0.0 hours): 0.0 weight percentage
- Gal2 in reaction products ([1]; incubation time 0.5 hours): 3.9 weight percentage
- Gal3 in reaction products ([1]; incubation time 0.5 hours): 1.2 weight percentage
- Gal in reaction products ([1]; incubation time 0.5 hours): 0.0 weight percentage
- MeGal2 in reaction products ([1]; incubation time 0.5 hours): 3.3 weight percentage
- MeGal3 in reaction products ([1]; incubation time 0.5 hours): 80.3 weight percentage
- MeGal in reaction products ([1]; incubation time 0.5 hours): 11.4 weight percentage
- Gal2 in reaction products ([1]; incubation time 2.2 hours): 12.5 weight percentage
- Gal3 in reaction products ([1]; incubation time 2.2 hours): 3.3 weight percentage
- Gal in reaction products ([1]; incubation time 2.2 hours): 2.3 weight percentage
- MeGal2 in reaction products ([1]; incubation time 2.2 hours): 3.7 weight percentage
- MeGal3 in reaction products ([1]; incubation time 2.2 hours): 59.7 weight percentage
- MeGal in reaction products ([1]; incubation time 2.2 hours): 18.4 weight percentage
- Gal2 in reaction products ([1]; incubation time 5.0 hours): 20.2 weight percentage
- Gal3 in reaction products ([1]; incubation time 5.0 hours): 10.6 weight percentage
- Gal in reaction products ([1]; incubation time 5.0 hours): 3.0 weight percentage
- MeGal2 in reaction products ([1]; incubation time 5.0 hours): 5.2 weight percentage
- MeGal3 in reaction products ([1]; incubation time 5.0 hours): 24.2 weight percentage
- MeGal in reaction products ([1]; incubation time 5.0 hours): 36.8 weight percentage
- Gal2 in reaction products ([1]; incubation time 72.0 hours): 36.2 weight percentage
- Gal3 in reaction products ([1]; incubation time 72.0 hours): 8.0 weight percentage
- Gal in reaction products ([1]; incubation time 72.0 hours): 17.1 weight percentage
- MeGal2 in reaction products ([1]; incubation time 72.0 hours): 4.2 weight percentage
- MeGal3 in reaction products ([1]; incubation time 72.0 hours): 0.0 weight percentage
- MeGal in reaction products ([1]; incubation time 72.0 hours): 34.6 weight percentage
- Release of MeGal versus MeGal2 from MeGal3 ([1]; in words): much higher release of MeGal than MeGal2
- Products of Gal4 (galactotetraose) degradation [2]: mainly to Gal and Gal2, whereas Gal3 did not accumulate
- Gal2 in reaction products ([2]; incubation time 0.0 hours): 0.0 weight percentage
- Gal3 in reaction products ([2]; incubation time 0.0 hours): 42.0 weight percentage
- Gal4 in reaction products ([2]; incubation time 0.0 hours): 58.0 weight percentage
- Gal in reaction products ([2]; incubation time 0.0 hours): 0.0 weight percentage
- Gal2 in reaction products ([2]; incubation time 0.5 hours): 8.1 weight percentage
- Gal3 in reaction products ([2]; incubation time 0.5 hours): 43.2 weight percentage
- Gal4 in reaction products ([2]; incubation time 0.5 hours): 42.9 weight percentage
- Gal in reaction products ([2]; incubation time 0.5 hours): 5.8 weight percentage
- Gal2 in reaction products ([2]; incubation time 2.2 hours): 21.9 weight percentage
- Gal3 in reaction products ([2]; incubation time 2.2 hours): 39.8 weight percentage
- Gal4 in reaction products ([2]; incubation time 2.2 hours): 21.6 weight percentage
- Gal in reaction products ([2]; incubation time 2.2 hours): 16.7 weight percentage
- Gal2 in reaction products ([2]; incubation time 5.0 hours): 34.8 weight percentage
- Gal3 in reaction products ([2]; incubation time 5.0 hours): 23.9 weight percentage
- Gal4 in reaction products ([2]; incubation time 5.0 hours): 5.7 weight percentage
- Gal in reaction products ([2]; incubation time 5.0 hours): 35.6 weight percentage
- Gal2 in reaction products ([2]; incubation time 72.0 hours): 33.6 weight percentage
- Gal3 in reaction products ([2]; incubation time 72.0 hours): 0.9 weight percentage
- Gal4 in reaction products ([2]; incubation time 72.0 hours): 0.2 weight percentage
- Gal in reaction products ([2]; incubation time 72.0 hours): 65.2 weight percentage
- Gal2 in reaction products ([3]; incubation time 0.0 hours): 0.0 weight percentage
- Gal3 in reaction products ([3]; incubation time 0.0 hours): 0.0 weight percentage
- Gal4 in reaction products ([3]; incubation time 0.0 hours): 0.0 weight percentage
- Gal in reaction products ([3]; incubation time 0.0 hours): 0.0 weight percentage
- MeGal2 in reaction products ([3]; incubation time 0.0 hours): 4.7 weight percentage
- MeGal3 in reaction products ([3]; incubation time 0.0 hours): 14.8 weight percentage
- MeGal4 in reaction products ([3]; incubation time 0.0 hours): 79.0 weight percentage
- MeGal in reaction products ([3]; incubation time 0.0 hours): 1.6 weight percentage
- Gal2 in reaction products ([3]; incubation time 0.5 hours): 6.3 weight percentage
- Gal3 in reaction products ([3]; incubation time 0.5 hours): 20.6 weight percentage
- Gal4 in reaction products ([3]; incubation time 0.5 hours): 3.3 weight percentage
- Gal in reaction products ([3]; incubation time 0.5 hours): 2.3 weight percentage
- MeGal2 in reaction products ([3]; incubation time 0.5 hours): 12.6 weight percentage
- MeGal3 in reaction products ([3]; incubation time 0.5 hours): 17.2 weight percentage
- MeGal4 in reaction products ([3]; incubation time 0.5 hours): 25.5 weight percentage
- MeGal in reaction products ([3]; incubation time 0.5 hours): 12.1 weight percentage
- Gal2 in reaction products ([3]; incubation time 2.0 hours): 5.0 weight percentage
- Gal3 in reaction products ([3]; incubation time 2.0 hours): 16.0 weight percentage
- Gal4 in reaction products ([3]; incubation time 2.0 hours): 3.2 weight percentage
- Gal in reaction products ([3]; incubation time 2.0 hours): 1.6 weight percentage
- MeGal2 in reaction products ([3]; incubation time 2.0 hours): 13.2 weight percentage
- MeGal3 in reaction products ([3]; incubation time 2.0 hours): 18.4 weight percentage
- MeGal4 in reaction products ([3]; incubation time 2.0 hours): 32.1 weight percentage
- MeGal in reaction products ([3]; incubation time 2.0 hours): 10.5 weight percentage
- Gal2 in reaction products ([3]; incubation time 5.0 hours): 13.8 weight percentage
- Gal3 in reaction products ([3]; incubation time 5.0 hours): 19.7 weight percentage
- Gal4 in reaction products ([3]; incubation time 5.0 hours): 3.2 weight percentage
- Gal in reaction products ([3]; incubation time 5.0 hours): 7.4 weight percentage
- MeGal2 in reaction products ([3]; incubation time 5.0 hours): 16.1 weight percentage
- MeGal3 in reaction products ([3]; incubation time 5.0 hours): 15.5 weight percentage
- MeGal4 in reaction products ([3]; incubation time 5.0 hours): 7.6 weight percentage
- MeGal in reaction products ([3]; incubation time 5.0 hours): 16.6 weight percentage
- Gal2 in reaction products ([3]; incubation time 24.0 hours): 25.3 weight percentage
- Gal3 in reaction products ([3]; incubation time 24.0 hours): 9.1 weight percentage
- Gal4 in reaction products ([3]; incubation time 24.0 hours): 1.7 weight percentage
- Gal in reaction products ([3]; incubation time 24.0 hours): 26.4 weight percentage
- MeGal2 in reaction products ([3]; incubation time 24.0 hours): 13.4 weight percentage
- MeGal3 in reaction products ([3]; incubation time 24.0 hours): 5.0 weight percentage
- MeGal4 in reaction products ([3]; incubation time 24.0 hours): 0.0 weight percentage
- MeGal in reaction products ([3]; incubation time 24.0 hours): 19.1 weight percentage
- Products from MeGal4 ([3]; in words, buffer, pH and temperature per enzyme): initial release mainly of MeGal, MeGal2 and Gal3 and some Gal2 but little Gal
- Activity on Gal2 [4]: Neither of the enzymes HIGAL, MTGAL, AAGAL or BLGAL had any detectable activity
- Activity on Gal3, products [5]: degraded Gal3 to Gal2 and Gal
- Production of larger oligosaccharides from transglycosylation [6]: verified
